Paper PMC7083852, “Ultrafast in-gel detection by fluorescent super-chelator probes with HisQuick-PAGE” (Communications Biology, 2020)

Biological target: T1, Thermus thermophilus multidrug-resistance protein A (TmrA), C-terminal His10-tag (Thermus thermophilus, UniProt Q72J05 1-600)
T1 construct: Thermus thermophilus multidrug-resistance protein A (TmrA), subunit of the heterodimeric ABC transporter TmrAB; Produced and purified together with TmrB as the heterodimer TmrAB; also called His10-tagged subunit of TmrAB; not shown: His10, C-terminal, kept
T1 sequence (looked up): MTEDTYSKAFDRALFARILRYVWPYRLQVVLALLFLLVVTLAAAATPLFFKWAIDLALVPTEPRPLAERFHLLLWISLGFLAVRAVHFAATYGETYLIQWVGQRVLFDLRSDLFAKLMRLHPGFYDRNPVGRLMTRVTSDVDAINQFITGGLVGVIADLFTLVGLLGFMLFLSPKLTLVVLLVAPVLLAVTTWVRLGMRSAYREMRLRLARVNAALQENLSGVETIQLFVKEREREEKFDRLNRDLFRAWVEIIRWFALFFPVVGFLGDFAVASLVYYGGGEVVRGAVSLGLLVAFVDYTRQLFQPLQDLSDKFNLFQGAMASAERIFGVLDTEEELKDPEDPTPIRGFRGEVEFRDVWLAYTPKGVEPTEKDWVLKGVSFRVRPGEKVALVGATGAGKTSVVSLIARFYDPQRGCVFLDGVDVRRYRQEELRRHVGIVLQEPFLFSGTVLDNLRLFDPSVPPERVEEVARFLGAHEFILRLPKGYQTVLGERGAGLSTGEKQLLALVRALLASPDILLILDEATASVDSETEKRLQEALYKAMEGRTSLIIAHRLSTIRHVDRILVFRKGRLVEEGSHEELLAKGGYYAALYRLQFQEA
Assay: native gel or EMSA; blue native PAGE of purified TmrAB (1.3 µg, 500 nM; produced in E. coli and purified as a whole via His10 on TmrA and by SEC) in DDM or reconstituted in MSP1D1 nanodiscs; labelled with tris- or hexaNTA-Alexa647 (450 nM), in-gel fluorescence
Conditions: both partners purified

B1: Thermus thermophilus multidrug-resistance protein B (TmrB) (natural protein, UniProt Q72J04 1-578, looked up)
chain: MTGRSAAPLLRRLWPYVGRYRWRYLWAVLAGLVSIFFFVLTPYFLRLAVDAVQAGRGFGVYALAIVASAALSGLLSYAMRRLAVVASRQVEYDLRRDLLHHLLTLDRDFYHKHRVGDLMNRLNTDLSAVREMVGPGILMGSRLSFLVLLAFLSMYAVNARLAFYLTLILPGIFLAMRFLLRLIDRRYREAQEVFDRISTLAQEAFSGIRVVKGYALERRMVAWFQDLNRLYVEKSLALARVEGPLHALLGFLMGFAFLTVLWAGGAMVVRGELSVGELVQFNAYLAQLTWPILGLGWVMALYQRGLTSLRRLFELLDEKPAIRDEDPLPLALEDLSGEVRFEGVGLKRDGRWLLRGLTLTIPEGMTLGITGRTGSGKSLLAALVPRLLDPSEGRVYVGGHEARRIPLAVLRKAVGVAPQEPFLFSETILENIAFGLDEVDRERVEWAARLAGIHEEILAFPKGYETVLGERGITLSGGQRQRVALARALAKRPKILILDDALSAVDAETEARILQGLKTVLGKQTTLLISHRTAALRHADWIIVLDGGRIVEEGTHESLLQAGGLYAEMDRLQKEVEA
notes: Thermus thermophilus multidrug-resistance protein B (TmrB), subunit of the heterodimeric ABC transporter TmrAB; Produced and purified together with TmrA as the heterodimer TmrAB; also called subunit of TmrAB
binding result: binds
